Measured values published in article PMC10549244 (RSC Chemical Biology, 2023).

Target: the molecule itself
Experiment: crystal structure

B1: SonM, borosin α-N-methyltransferase (wild type) (enzyme, Shewanella oneidensis MR-1)
chain: MGSLVCVGTGLQLAGQISVLSRSYIEHADIVFSLLPDGFSQRWLTKLNPNVINLQQFYAQNGEVKNRRDTYEQMVNAILDAVRAGKKTVCALYGHPGVFACVSHMAITRAKAEGFSAKMEPGISAEACLWADLGIDPGNSGHQSFEASQFMFFNHVPDPTTHLLLWQIAIAGEHTLTQFHTSSDRLQILVEQLNQWYPLDHEVVIYEAANLPIQAPRIERLPLANLPQAHLMPISTLLIPPAKKLEYNYAILAKLGIGPEDLG
- stoichiometry N: 2
